Results from patent US20250361295A1 (ANTENGENE BIOLOGICS, published 2025).

B1: 44-F10-B6-D4 (antibody, V domains shown)
VH: EVHLVESGGGLVKPGGSLKLSCAASGFTFSSYAMSWVRQTPEKRLEWVATISSGGSYIYYPDSVKGRFTISRDNAKNTLYLQMSSLRSEDTAMYYCARQDWDGGDYYAMDYWGQGTSVTVSS
VL: DIVMTQSPSSLAVSAGEKVTMSCKSSQSVLYSSNQKNFLAWYQQKPGQSPKLLIYWASTRESGVPDRFTGSGSGTDFTLTISSVQAEDLAVYYCHQYLSSLTFGAGTKLELK
notes: mouse monoclonal hybridoma antibody
B2: 7-B4-C1-C9 (antibody, V domains shown)
VH: EVQLQQSGTELVKPGASVKLSCKASGYTFTNYWMHWVKQRPGQGLEWIGEINPSNGRTNYNEKFKTKATLTVDKSSSTAYMQLSSLTSEDSAVYYCARSTYYGYDWYFDVWGAGTTVTVSS
VL: DIVLTQSPSSMYASLGERVTITCKASQDINSYLSWFQQKPGKSPKTLIYRANRLLDGVPSRFSGGGSGQDYSLTISSLEHEDMGIYYCLQCDEFPHTFGGGTKLEIK
notes: as for B1
B3: 4-E6-E4-B12 (antibody, V domains shown)
VH: EVQLKESGAELVKPGASVKLSCKASGYTFTSHWMHWVKQRPGQGLEWIGEINPSNGRTNYNEKFTSKATLTVDQSSSTAYMQLSSLTSEDSAVYYCARGNLTTVVPFDYWGQGTALTVSS
VL: DIVMTQSPSSLSASLGGKVTITCKASQDINKFIAWYQHKPGKGPRLLIHFTSTLQPGIPSRFSGSGSGRDYSFSISNLEPEDIATYFCLQYDLLLTFGGGTKLEIK
notes: as for B1
B4: ch2-H1-D7-E5-D5 (antibody, V domains shown)
VH: EVHLVESGGGLVQPGGSRKLSCAASGFTFSSFGMHWVRQPPEKGLEWVAYISSGSSSIYYADTVKGRFTISRDNPKNTLFLQMTSLRSEDTAMYYCARGTGTGAMDYWGQGTSVTVSS
VL: DIQMTQTTSSLSASLGDRVTISCRTSQDISNYLNWYQQKPDGTVKLLIYYTSKLHSGVPSRFSGSGSGTDYSLTISNLDQEDIATYFCQQGNTLPWTFGGGTKLEIK
B5: ch10-H9-E3-G3 (antibody, V domains shown)
VH: EVQRVESGGGLVQPGGSRKLSCAASGFTFSSFGMHWVRQAPEKGLEWVAYISSGSSAMYYADTVKGRFTISRDNPKNTLFLQMTSLRSEDTAMYYCARSDGKGAMDYWGQGTSVTVSS
VL: DIQMTQTTSSLSASLGDRVTISCRASQDISNYLNWYQQKPDGTVKLLVYYTSRLHSGVPSRFSGSGSGTDYSLTISNLEQEDIATYFCQQGNTLPWTFGGGTKLEIK
B6: ch27-D11-C2-A10 (antibody, V domains shown)
VH: EVQLVESGGGLVQPGGSRKLSCAASGFTFSVFGVHWVRQAPEKGLEWVAYISSGSNTIHYADTVKGRFTISRDIPKNTLFLQMTSLRSEDTAMYYCARSSGTGAMDYWGQGTSVTVSS
VL: DIQMTQSTSSLSASLGDRVSISCRASQDISNYLNWYQQKPDGAVKLLIYYTSRLHSGVPSRFSGSGSGTDYSLTISNLDQEDIATYFCQQGNTLPWTFGGGTKLELK
B7: ch26-H9-B9-B7 (antibody, V domains shown)
VH: EVQRVESGGGLVQPGGSRKLSCAASGFTFSSFGMHWVRQAPEKGLEWVAYISSGSSTIYYADTVKGRFTISRDNPKNTLFLQMTSLRSEDTAMYYCARSDGKGAMDYWGQGTSVTVSS
VL: DIVMTQSTSSLSASLGDRVTISCRASQDISNYLNWYQQKPDGTVKLLIYYTSRLHSGVPSRFSGSGSGTDYSLTISNLEQEDIATYFCQQGNTLPWTFGGGTKLEIK
B8: 36-F4-H1-D9 (antibody, V domains shown)
VH: EVKLLESGGGLVQPGGSLKLSCAASGFDFSRYWMIWVRQAPEKGLEWIGEINPDSSTINYTPSLKDKFIISRDNAKNTLYLQMSKVRSEDTALYYCARPYYRYDVGYFDVWGAGTTVTVSS
VL: DIVMTQAPKVLLVSAGDRVTISCKASQSVSNAVVWYQQKPGQSPKLLIFYASNRYTGVPDRFTGSGYGTDFTFSISTVQAEDLAVYFCQQDYSSPWTFGGGTKLEIK
notes: as for B1
B9: 42-C8-A12-F3-D11 (antibody, V domains shown)
VH: EVHLVESGGDLVKPGGSLKLSCAASGFTFSSHGMSWVRQTPDKRLEWVATISSGGIYTYHPDSVKGRFSISRDNAKKTLYLQMSSLKSEDTGIYYCTRGQVGNWYFDVWGAGTTVTVSS
VL: DIVITQSPAIMSASPGEKVTINCSASSSVSYMHWFQQTPGTSPKLWIYSTSNLASGVPARFSGSGSGTFYSLTISRMEAEDAATYYCQQRSSYPLTFGAGTKLELK
notes: as for B1
B10: 25-G9-G4-C12 (antibody, V domains shown)
VH: EVQLVESGGDLVKPGGSLKLSCAASGFTFSSHGMSWVRQTPDKRLEWVATINSGGYYTYYPDSVKGRFTISRDNAKNTLYLQMSSLKSEDTAMYYCARGQLGNWYFDVWGAGTTVTVSS
VL: DIVMTQSPAIMSASPGEKVTITCSASSSVSYMHWFQQKPGTSPKLWIYSTSNLASGVPARFSGSGSGTSYSLTISRMEAEDAATYYCQQRSSYPLTFGAGTKLELK
notes: as for B1

Key:
human LILRA1 = target: T1, human LILRA1 (human, UniProt O75019 17-489); experiment: FACS, 293F-hLILRA1 cells
T1 construct: whole, on cells; also called hLILRA1
T1 sequence (O75019 17-489): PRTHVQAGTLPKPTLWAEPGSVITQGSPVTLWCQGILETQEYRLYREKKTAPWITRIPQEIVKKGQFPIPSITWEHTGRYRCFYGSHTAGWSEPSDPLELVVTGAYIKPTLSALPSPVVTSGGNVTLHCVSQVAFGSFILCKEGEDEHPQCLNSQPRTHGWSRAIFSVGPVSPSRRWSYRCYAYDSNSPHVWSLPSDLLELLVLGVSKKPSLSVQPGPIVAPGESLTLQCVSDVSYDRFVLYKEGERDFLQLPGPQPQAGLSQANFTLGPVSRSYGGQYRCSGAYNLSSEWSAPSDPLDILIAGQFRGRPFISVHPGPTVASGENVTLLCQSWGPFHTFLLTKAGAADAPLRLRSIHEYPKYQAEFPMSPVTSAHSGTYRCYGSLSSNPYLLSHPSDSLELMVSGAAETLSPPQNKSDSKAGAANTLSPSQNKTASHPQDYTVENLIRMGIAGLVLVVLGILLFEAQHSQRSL

human LILRA2 = target: T2, human LILRA2 (human, UniProt Q8N149 24-483); experiment: FACS, 293F-hLILRA2 cells
T2 construct: whole, on cells; also called hLILRA2
T2 sequence (Q8N149 24-483): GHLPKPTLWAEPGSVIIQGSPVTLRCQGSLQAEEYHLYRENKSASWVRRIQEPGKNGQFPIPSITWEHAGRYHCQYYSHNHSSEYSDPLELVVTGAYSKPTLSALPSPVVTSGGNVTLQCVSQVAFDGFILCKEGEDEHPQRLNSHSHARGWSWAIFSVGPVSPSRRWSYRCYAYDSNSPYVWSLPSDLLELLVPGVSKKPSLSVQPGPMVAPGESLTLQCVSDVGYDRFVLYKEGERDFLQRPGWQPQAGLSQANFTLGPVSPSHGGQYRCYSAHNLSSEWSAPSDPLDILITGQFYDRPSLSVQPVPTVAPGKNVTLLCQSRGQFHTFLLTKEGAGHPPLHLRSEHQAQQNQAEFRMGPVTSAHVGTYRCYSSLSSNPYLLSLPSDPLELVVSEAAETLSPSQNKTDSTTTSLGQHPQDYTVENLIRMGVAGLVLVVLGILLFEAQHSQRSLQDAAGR

human LILRA3 = target: T3, human LILRA3 (human, UniProt Q8N6C8 24-439); experiment: FACS, 293F-hLILRA3 cells
T3 construct: whole, on cells; also called hLILRA3
T3 sequence (Q8N6C8 24-439): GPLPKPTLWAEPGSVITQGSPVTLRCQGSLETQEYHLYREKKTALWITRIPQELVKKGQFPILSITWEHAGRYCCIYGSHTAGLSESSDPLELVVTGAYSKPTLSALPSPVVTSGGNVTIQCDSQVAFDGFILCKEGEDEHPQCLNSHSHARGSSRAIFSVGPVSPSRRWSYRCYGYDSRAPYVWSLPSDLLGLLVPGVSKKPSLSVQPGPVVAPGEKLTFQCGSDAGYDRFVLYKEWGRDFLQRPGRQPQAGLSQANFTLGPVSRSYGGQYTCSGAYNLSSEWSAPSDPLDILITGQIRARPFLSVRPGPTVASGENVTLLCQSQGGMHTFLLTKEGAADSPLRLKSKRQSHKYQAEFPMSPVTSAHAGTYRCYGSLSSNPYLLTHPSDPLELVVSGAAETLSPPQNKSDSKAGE

human LILRA4 = target: T4, human LILRA4 (human, UniProt P59901 24-499); experiment: FACS, 293F-hLILRA4 cells
T4 construct: whole, on cells; also called hLILRA4
T4 sequence (P59901 24-499): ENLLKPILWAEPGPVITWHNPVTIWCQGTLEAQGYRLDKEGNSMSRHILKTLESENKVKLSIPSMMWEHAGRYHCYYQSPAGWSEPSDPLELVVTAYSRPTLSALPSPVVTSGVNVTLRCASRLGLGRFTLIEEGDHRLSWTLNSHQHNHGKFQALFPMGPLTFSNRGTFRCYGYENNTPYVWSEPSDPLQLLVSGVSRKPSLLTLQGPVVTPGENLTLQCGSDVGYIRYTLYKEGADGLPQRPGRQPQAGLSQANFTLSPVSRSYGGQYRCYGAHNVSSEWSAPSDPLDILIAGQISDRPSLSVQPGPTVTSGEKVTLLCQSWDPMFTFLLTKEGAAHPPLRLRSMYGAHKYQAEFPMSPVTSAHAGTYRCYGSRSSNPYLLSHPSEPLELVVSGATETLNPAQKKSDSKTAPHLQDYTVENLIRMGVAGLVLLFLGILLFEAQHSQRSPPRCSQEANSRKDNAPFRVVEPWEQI

human LILRA5 = target: T5, human LILRA5 (human, UniProt A6NI73 42-299); experiment: FACS, 293F-hLILRA5 cells
T5 construct: whole, on cells; also called hLILRA5
T5 sequence (A6NI73 42-299): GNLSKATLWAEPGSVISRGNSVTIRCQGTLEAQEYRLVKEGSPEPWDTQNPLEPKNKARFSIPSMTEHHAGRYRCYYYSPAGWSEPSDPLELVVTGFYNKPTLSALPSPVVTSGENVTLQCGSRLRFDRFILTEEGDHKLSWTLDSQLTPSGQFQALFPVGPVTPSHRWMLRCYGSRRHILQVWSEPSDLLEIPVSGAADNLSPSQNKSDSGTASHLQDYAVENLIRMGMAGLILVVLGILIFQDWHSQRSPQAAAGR

human LILRB1 = target: T6, human LILRB1 (human, UniProt Q8NHL6 24-650); experiment: FACS, 293F-hLILRB1 cells
T6 construct: whole, on cells; also called hLILRB1
T6 sequence (Q8NHL6 24-650): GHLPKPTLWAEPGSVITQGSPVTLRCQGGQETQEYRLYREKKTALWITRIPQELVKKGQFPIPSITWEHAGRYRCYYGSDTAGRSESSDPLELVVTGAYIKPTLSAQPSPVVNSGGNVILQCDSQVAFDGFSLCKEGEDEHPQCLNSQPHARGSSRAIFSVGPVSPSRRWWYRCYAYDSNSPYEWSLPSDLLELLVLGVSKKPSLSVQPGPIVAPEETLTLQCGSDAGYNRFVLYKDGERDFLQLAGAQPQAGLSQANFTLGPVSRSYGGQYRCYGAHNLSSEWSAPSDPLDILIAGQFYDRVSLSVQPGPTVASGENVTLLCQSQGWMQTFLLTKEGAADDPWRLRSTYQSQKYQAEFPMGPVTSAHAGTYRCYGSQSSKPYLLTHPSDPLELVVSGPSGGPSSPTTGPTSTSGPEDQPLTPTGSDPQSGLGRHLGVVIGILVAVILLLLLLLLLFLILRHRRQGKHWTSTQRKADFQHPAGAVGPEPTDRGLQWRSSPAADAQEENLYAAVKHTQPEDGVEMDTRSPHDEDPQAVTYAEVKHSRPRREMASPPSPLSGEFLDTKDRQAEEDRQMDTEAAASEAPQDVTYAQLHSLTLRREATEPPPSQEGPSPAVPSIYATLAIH

human LILRB2 = target: T7, human LILRB2 (human, UniProt Q8N423 22-597); experiment: FACS, 293F-hLILRB2 cells
T7 construct: whole, on cells; also called hLILRB2
T7 sequence (Q8N423 22-597): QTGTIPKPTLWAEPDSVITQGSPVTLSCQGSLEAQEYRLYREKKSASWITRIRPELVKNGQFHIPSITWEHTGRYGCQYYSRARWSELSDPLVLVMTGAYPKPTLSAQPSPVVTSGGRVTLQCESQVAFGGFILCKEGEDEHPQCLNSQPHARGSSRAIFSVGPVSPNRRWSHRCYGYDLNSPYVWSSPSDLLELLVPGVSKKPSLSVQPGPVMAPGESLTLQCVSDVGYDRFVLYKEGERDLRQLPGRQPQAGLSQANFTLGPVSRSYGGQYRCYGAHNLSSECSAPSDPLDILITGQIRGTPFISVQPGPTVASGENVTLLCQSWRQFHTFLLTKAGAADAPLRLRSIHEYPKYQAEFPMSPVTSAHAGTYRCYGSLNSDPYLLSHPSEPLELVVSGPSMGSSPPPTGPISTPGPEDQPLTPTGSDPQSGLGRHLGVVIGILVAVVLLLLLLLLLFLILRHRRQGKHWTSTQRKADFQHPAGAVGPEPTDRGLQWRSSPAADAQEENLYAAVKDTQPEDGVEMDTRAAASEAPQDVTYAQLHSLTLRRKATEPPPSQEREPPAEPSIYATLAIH

human LILRB3 [1] = target: T8, human LILRB3 (human, UniProt O75022 24-631); experiment: FACS, 293F-hLILRB3 cells
T8 construct: whole, on cells; also called hLILRB3
T8 sequence (O75022 24-631): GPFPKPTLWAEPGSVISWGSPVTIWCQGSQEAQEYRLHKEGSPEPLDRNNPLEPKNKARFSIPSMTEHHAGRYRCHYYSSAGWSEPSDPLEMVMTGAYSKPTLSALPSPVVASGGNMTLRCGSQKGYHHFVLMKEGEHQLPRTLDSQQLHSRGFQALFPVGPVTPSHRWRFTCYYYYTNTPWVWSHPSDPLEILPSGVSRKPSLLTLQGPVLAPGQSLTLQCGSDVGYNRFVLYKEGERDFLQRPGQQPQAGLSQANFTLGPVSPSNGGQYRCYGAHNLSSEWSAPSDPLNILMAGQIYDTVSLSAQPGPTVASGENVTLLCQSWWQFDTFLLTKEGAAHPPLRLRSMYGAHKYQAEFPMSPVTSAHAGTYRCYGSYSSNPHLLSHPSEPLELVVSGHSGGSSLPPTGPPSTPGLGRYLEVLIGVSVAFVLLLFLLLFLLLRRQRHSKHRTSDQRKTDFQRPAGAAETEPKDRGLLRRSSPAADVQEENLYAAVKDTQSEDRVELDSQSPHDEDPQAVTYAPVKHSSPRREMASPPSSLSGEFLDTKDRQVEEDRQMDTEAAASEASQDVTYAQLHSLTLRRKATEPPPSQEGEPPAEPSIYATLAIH

human LILRB4 [2] = target: T9, human LILRB4 (human, UniProt Q8NHJ6 22-448); experiment: FACS, 293F-hLILRB4 cells
T9 construct: whole, on cells; also called hLILRB4
Method: The subcloning plates were screened by protein or cell-based ELISA, and the subclones with good binding ability were expanded to 24-wells for confirmation tests. The specificity and cross-reactivity of these subclones were confirmed with FACS analysis. […] Fluorescent dye-conjugated secondary antibody was used to detect the binding of the primary antibody with the cells. Median fluorescence intensity (MFI) was measured by FACS analysis. […]

human LILRB5 = target: T10, human LILRB5 (human, UniProt O75023 24-590); experiment: FACS, 293F-hLILRB5 cells
T10 construct: whole, on cells; also called hLILRB5
T10 sequence (O75023 24-590): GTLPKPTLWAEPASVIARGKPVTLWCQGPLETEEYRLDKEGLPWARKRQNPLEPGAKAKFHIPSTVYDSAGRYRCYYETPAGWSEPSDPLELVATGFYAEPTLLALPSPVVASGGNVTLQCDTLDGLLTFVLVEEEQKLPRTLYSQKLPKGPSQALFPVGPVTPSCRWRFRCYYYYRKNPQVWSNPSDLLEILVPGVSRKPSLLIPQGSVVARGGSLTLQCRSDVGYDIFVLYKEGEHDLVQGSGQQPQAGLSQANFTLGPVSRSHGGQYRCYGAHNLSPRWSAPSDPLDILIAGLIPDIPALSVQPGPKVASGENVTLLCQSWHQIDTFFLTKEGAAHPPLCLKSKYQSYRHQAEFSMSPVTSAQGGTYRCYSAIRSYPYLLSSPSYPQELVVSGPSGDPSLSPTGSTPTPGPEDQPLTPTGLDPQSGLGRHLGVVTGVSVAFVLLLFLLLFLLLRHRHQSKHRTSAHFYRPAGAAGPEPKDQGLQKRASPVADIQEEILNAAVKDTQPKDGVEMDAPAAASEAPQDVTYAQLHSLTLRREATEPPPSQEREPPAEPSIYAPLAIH

human LILRA6 protein = target: T11, human LILRA6 protein (human, UniProt Q6PI73 24-447, limits assumed); experiment: ELISA, LILRA6 protein
T11 construct: protein for ELISA; construct not described; also called hLILRA6 protein
T11 sequence (Q6PI73 24-447 limits assumed): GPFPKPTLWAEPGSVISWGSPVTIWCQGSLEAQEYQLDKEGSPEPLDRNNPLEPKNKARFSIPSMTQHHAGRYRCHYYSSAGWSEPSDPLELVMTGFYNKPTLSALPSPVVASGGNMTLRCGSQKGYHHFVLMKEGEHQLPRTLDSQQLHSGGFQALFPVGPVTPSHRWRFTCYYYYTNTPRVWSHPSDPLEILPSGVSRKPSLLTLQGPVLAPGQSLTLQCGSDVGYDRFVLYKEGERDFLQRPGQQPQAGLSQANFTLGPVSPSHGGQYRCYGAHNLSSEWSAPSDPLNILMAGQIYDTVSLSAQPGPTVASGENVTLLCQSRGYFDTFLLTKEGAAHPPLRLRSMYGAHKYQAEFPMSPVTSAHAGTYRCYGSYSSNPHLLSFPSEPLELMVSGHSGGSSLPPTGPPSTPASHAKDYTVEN

human LILRB4 [3] = target: T9, human LILRB4; experiment: cell-based or functional assay
human LILRB4 [4] = target: T9, human LILRB4; experiment: cell-based or functional assay; remark: listed apart in the source
human LILRB4 [5] = target: T9, human LILRB4; experiment: cell-based or functional assay; remark: listed apart in the source
human LILRB3 [6] = target: T8, human LILRB3; experiment: FACS, 293F-hLILRB3 cells; remark: listed apart in the source
Method: (§1) The protocol for FACS analysis is described as follows: [0438] (a) Cells were harvested by centrifugation at 300 g for 3 mins. […] (b) The cells were washed for 2 times with FACS buffer by centrifuging at 300 g for 3 mins and the supernatant was discarded. [0440] (c) Cell were resuspended and seeded into assay plate (2×10⁵ cells/well) in 50 μl FACS buffer. […] Cells were incubated with antibodies at 4° C. for 1 hour. […] (d) Step (b) was repeated and the cells were resuspended with 100 μl diluted 2nd antibody, incubated at 4° C. for 1 hour in the dark. [0442] (e) Step (b) was repeated and the cells were resuspended with 100 μl FACS buffer. The cells were kept in dark for FACS analysis.

human LILRB4 [7] = target: T9, human LILRB4; experiment: FACS, 293F-hLILRB4 cells; remark: listed apart in the source
Method: as §1

| Binder | MFI (human LILRA1) | MFI (human LILRA2) | MFI (human LILRA3) | MFI (human LILRA4) | MFI (human LILRA5) | MFI (human LILRB1) | MFI (human LILRB2) | MFI (human LILRB3 [1]) | MFI (human LILRB4 [2]) | MFI (human LILRB5) | binding result (human LILRA6 protein) | EC50 (nM), ADCC on THP-1 cells (human LILRB4 [3]) | Max cell cytotoxicity (%), ADCC on THP-1 cells (human LILRB4 [3]) | ADCP (%) at 133.3 nM, macrophages and MV-4-11 cells (human LILRB4 [4]) | FcγR stimulation (TNF-α, pg/mL) (human LILRB4 [5]) | Fold change (Compared to isotype) (human LILRB4 [5]) | binding result (human LILRB3 [6]) | EC50 (human LILRB4 [7]) | Max MFI (human LILRB4 [7]) |
| --- | --- | --- | --- | --- | --- | --- | --- | --- | --- | --- | --- | --- | --- | --- | --- | --- | --- | --- | --- |
| B1 | 25.6 MFI | 24.8 MFI | 22.5 MFI | 24.4 MFI | 26.8 MFI | 38.4 MFI | 38.2 MFI | 31.6 MFI | 84.9 MFI | 26.6 MFI |  |  |  |  |  |  |  |  |  |
| B2 | 27.5 MFI | 21.6 MFI | 25.2 MFI | 26.2 MFI | 28.2 MFI | 27.7 MFI | 32.2 MFI | 26.1 MFI | 3950 MFI | 17.8 MFI |  |  |  |  |  |  |  |  |  |
| B3 | 24.4 MFI | 21.9 MFI | 23.7 MFI | 23.2 MFI | 32.6 MFI | 23.6 MFI | 58 MFI | 27.1 MFI | 1530 MFI | 21.4 MFI |  |  |  |  |  |  |  |  |  |
| B4 |  |  |  |  |  |  |  |  |  |  | no binding | 7.34 nM | 39.6% | 27.9% | 325 pg/mL | 10.3 fold | no binding (tested: up to 66.67 nM) | 1.6 nM | 38300 MFI |
| B5 |  |  |  |  |  |  |  |  |  |  | no binding |  | 16.6% | 13.7% | 389 pg/mL | 12.3 fold | no binding (tested: up to 66.67 nM) | 1.41 nM | 45200 MFI |
| B6 |  |  |  |  |  |  |  |  |  |  | no binding |  | 20.2% | 12.1% | 666 pg/mL | 21.1 fold | no binding (tested: up to 66.67 nM) | 1.43 nM | 46800 MFI |
| B7 |  |  |  |  |  |  |  |  |  |  | no binding |  | 15.2% | 16.1% | 547 pg/mL | 17.3 fold | no binding (tested: up to 66.67 nM) | 1.66 nM | 46000 MFI |
| B8 | 22.1 MFI | 16.5 MFI | 18.6 MFI | 20.7 MFI | 20.3 MFI | 25.7 MFI | 26.5 MFI | 23.5 MFI | 898 MFI | 17 MFI |  |  |  |  |  |  |  |  |  |
| B9 | 27.3 MFI | 28.1 MFI | 24.5 MFI | 27.2 MFI | 27.9 MFI | 29.6 MFI | 34.5 MFI | 602 MFI | 1290 MFI | 22.2 MFI |  |  |  |  |  |  |  |  |  |
| B10 | 24.3 MFI | 21.7 MFI | 18.6 MFI | 22.7 MFI | 25.3 MFI | 26 MFI | 32.8 MFI | 25.2 MFI | 383 MFI | 22.9 MFI |  |  |  |  |  |  |  |  |  |
